From paper PMC12222023 (Nature, 2024) come the findings set out here.

Test [1] deals with T1, His-tagged SIRT1(E230K), bacterially expressed (human, UniProt Q96EB6 1-747, E230K).
T1 sequence (looked up): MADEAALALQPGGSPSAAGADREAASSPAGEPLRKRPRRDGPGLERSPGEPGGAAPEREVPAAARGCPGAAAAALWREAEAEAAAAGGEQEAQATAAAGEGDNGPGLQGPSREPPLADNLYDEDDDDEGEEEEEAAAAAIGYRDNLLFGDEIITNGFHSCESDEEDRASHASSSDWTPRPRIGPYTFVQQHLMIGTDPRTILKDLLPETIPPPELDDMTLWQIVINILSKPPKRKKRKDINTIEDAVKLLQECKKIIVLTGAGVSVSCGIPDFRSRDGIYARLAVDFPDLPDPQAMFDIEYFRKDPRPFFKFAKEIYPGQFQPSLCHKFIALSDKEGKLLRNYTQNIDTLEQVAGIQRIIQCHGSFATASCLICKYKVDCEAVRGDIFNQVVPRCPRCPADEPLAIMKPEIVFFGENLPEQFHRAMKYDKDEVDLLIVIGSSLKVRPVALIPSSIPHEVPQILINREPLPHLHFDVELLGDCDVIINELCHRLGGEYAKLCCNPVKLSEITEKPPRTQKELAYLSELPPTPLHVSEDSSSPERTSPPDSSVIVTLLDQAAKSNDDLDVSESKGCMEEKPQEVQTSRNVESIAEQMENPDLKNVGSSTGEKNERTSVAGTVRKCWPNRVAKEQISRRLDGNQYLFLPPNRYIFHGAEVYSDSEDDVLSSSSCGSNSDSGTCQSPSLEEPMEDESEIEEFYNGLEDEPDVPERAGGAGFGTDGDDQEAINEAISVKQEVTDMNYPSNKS
The experiment in a line: SEC.

Test [2] deals with T2, His-tagged SIRT1, bacterially expressed (human, UniProt Q96EB6 1-747).
T2 sequence (looked up): T1 sequence (looked up) with K230E
The test is described as follows: SEC.

Where a chain is given by its changes, count along the chain named.

B1: His-tagged TULP3, bacterially expressed (natural protein, human, UniProt O75386 1-442, looked up)
chain: MEASRCRLSPSGDSVFHEEMMKMRQAKLDYQRLLLEKRQRKKRLEPFMVQPNPEARLRRAKPRASDEQTPLVNCHTPHSNVILHGIDGPAAVLKPDEVHAPSVSSSVVEEDAENTVDTASKPGLQERLQKHDISESVNFDEETDGISQSACLERPNSASSQNSTDTGTSGSATAAQPADNLLGDIDDLEDFVYSPAPQGVTVRCRIIRDKRGMDRGLFPTYYMYLEKEENQKIFLLAARKRKKSKTANYLISIDPVDLSREGESYVGKLRSNLMGTKFTVYDRGICPMKGRGLVGAAHTRQELAAISYETNVLGFKGPRKMSVIIPGMTLNHKQIPYQPQNNHDSLLSRWQNRTMENLVELHNKAPVWNSDTQSYVLNFRGRVTQASVKNFQIVHKNDPDYIVMQFGRVADDVFTLDYNYPLCAVQAFGIGLSSFDSKLACE
As to B1, in test [1], the binding result was “binds”.

B2: His-tagged TULP3(4G), bacterially expressed (natural protein, human, UniProt O75386 1-442, looked up)
chain: B1 chain with Y193G, P195G, K333G, P336G
As for B2, in test [2], the binding result is reported as “binds”.
